One substance from PMC11393077 can be followed below.

This assay deals with CTD peptide containing two heptad repeats with one Ser5 phosphorylation site. In words: fluorescence polarisation.

The substance “Human prolyl isomerase 1 (PIN1) (from UniProt Q13526 1-163) (enzyme)” yielded an equilibrium dissociation constant (Kd) of 21 µM.
